Reference: publication PMC8543371 (Nature microbiology, 2021)

B1: AZD8895 P99V (heavy chain) (antibody, V domains shown)
VH: QMQLVQSGPEVKKPGTSVKVSCKASGFTFMSSAVQWVRQARGQRLEWIGWIVIGSGNTNYAQKFQERVTITRDMSTSTAYMELSSLRSEDTAVYYCAAVYCSSISCNDGFDIWGQGTMVTVSS
VL: not shown
B2: AZD8895 P99N (heavy chain) (antibody, V domains shown)
VH: QMQLVQSGPEVKKPGTSVKVSCKASGFTFMSSAVQWVRQARGQRLEWIGWIVIGSGNTNYAQKFQERVTITRDMSTSTAYMELSSLRSEDTAVYYCAANYCSSISCNDGFDIWGQGTMVTVSS
VL: not shown
B3: AZD8895 D108N (heavy chain) (antibody, V domains shown)
VH: QMQLVQSGPEVKKPGTSVKVSCKASGFTFMSSAVQWVRQARGQRLEWIGWIVIGSGNTNYAQKFQERVTITRDMSTSTAYMELSSLRSEDTAVYYCAAPYCSSISCNNGFDIWGQGTMVTVSS
VL: not shown
B4: AZD8895 D108E (heavy chain) (antibody, V domains shown)
VH: QMQLVQSGPEVKKPGTSVKVSCKASGFTFMSSAVQWVRQARGQRLEWIGWIVIGSGNTNYAQKFQERVTITRDMSTSTAYMELSSLRSEDTAVYYCAAPYCSSISCNEGFDIWGQGTMVTVSS
VL: not shown
B5: AZD8895 D108A (heavy chain) (antibody, V domains shown)
VH: QMQLVQSGPEVKKPGTSVKVSCKASGFTFMSSAVQWVRQARGQRLEWIGWIVIGSGNTNYAQKFQERVTITRDMSTSTAYMELSSLRSEDTAVYYCAAPYCSSISCNAGFDIWGQGTMVTVSS
VL: not shown

target: recombinant SARS-CoV-2 S 6P protein (SARS-CoV-2, Wuhan-Hu-1 reference …, UniProt P0DTC2, stabilised); assay: ELISA

Binder | binding result
B1 | binds
B2 | binds
B3 | binds
B4 | binds
B5 | binds
